Measured values as given in article PMC8259415.
pKd: −log10 of the molar value. Values belong to the substance of their own block, whether it stands above or below them.

How the values were obtained:
Abl2 SH2 domain = Abl2 SH2 domain (UniProt Q4JIM5); assay: SH2-coupled bead pull-down from lysate, blot; conditions: reference: wild type
[1] = target: Abl2 Src homology 2 (SH2) domain (UniProt Q4JIM5); assay: pull-down; Abl2 SH2 covalently linked to AminoLink beads, 1 μM; 0 to 2 μM PDGFRβ CD; 1 h at 4 °C; 50 mM Hepes pH 7.25, 150 mM NaCl, 5% glycerol, 1 mM DTT; SDS-PAGE, Coomassie densitometry, one-site specific binding fit

Sequence of UniProt Q4JIM5 (Q4JIM5 173-263): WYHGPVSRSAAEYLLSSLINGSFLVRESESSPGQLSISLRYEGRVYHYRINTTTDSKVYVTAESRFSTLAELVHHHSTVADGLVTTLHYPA

- other: percent reduction relative to WT (Abl2 SH2 domain; sites Y751): 10%
Substance: PDGFRβ (from UniProt P09619) Y751F

- other: percent reduction relative to WT (Abl2 SH2 domain; sites Y771): 90%
Substance: PDGFRβ (from UniProt P09619) Y771F

- pKd [1]: 6.59
Substance: autophosphorylated PDGFRβ cytoplasmic domain (CD) (from UniProt P09619 554-1106) (domain or fragment)
